Measured values published in patent US7981423B2, “Rage fusion proteins” (Transtech Pharma, Inc., priority 2004, dated 2011).

Legend:
[1] = normal and diabetic rats; retention of immunoreactivity sRAGE; cited from earlier work
[2] = cited from earlier work
[3] = test system: APP transgenic mice; assay: Mouse model of AD (APP transgenic mice); type: in vivo; settings: treated for 3 months, versus vehicle and human IgG1
Procedure: Experiments were performed to evaluate whether TTP-4000 could affect amyloid formation and cognitive dysfunction in a mouse model of AD. The experiments utilized transgenic mice expressing the human Swedish mutant amyloid precursor protein (APP) under the control of the PDGF-B chain promoter. Over time, these mice generate high levels of the RAGE ligand, amyloid beta (Aβ).
The APP mice (male) used in this experiment were designed by microinjection of the human APP gene (with the Swedish and London mutations) into mouse eggs under the control of the platelet-derived growth factor B (PDGF-B) chain gene promoter. The mice were generated on a C57BL/6 background and were developed by Molecular Therapeutics Inc. Animals were fed ad libituin and maintained by brother sister mating. The mice generated from this construct develop amyloid deposits starting at 6 months of age. Animals were aged for 6 months and then maintained for 90 days and sacrificed for amyloid quantification.
APP transgenic mice were administered vehicle or TTP4000 every other day [qod (i.p.)] for 90 days starting at 6 months of age. At the end of the experiment, animals were sacrificed and examined for AP plaque burden in the brain (i.e., plaque number). A 6-month control APP group was used to determine the baseline of amyloid deposits. In addition, at the end of the study, the animals were subjected to behavioral (Morris water maze) analysis. The investigators were blinded to the study compounds. Samples were given to the mice at 0.25 ml/mouse/every other day.
For histological examination, the animals were anesthetized with an intraperitoneal injection (IP) of sodium pentobarbital (50 mg/kg). The animals were transcardially perfused with 4° C., phosphate-buffered saline (PBS) followed by 4% paraformaldehyde. The brains were removed and placed in 4% paraformaldehyde over night. The brains were processed to paraffin and embedded. Ten serial 30-μm thick sections through the brain were obtained. Sections were subjected to primary antibody overnight at 4° C. (Aβ peptide antibody) in order to detect the amyloid deposits in the brain of the transgenic animals (Guo et al., J. Neurosci., 22:5900-5909 (2002)). Sections were washed in Tris-buffered saline (TBS) and secondary antibody was added and incubated for 1 hour at room temperature. After washing, the sections were incubated as instructed in the Vector ABC Elite kit (Vector Laboratories) and stained with […] (DAB). The reactions were stopped in water and cover-slipped after treatment with xylene. The amyloid area in each section was determined with a computer-assisted image analysis system, consisting of a Power Macintosh computer equipped with a Quick Capture frame grabber card, Hitachi CCD camera mounted on an Olympus microscope and camera stand. NIH Image Analysis Software, v. 1.55 was used. The images were captured and the total area of amyloid was determined over the ten sections. A single operator blinded to treatment status performed all measurements. Summing the amyloid volumes of the sections and dividing by the total number of sections was done to calculate the amyloid volume.
For quantitative analysis, an enzyme-linked immunosorbent assay (ELISA) was used to measure the levels of human total Aβ, Aβtotal and Aβ1-42 in the brains of APP transgenic mice (Biosource International., Camarillo, Calif.). Aβtotal and Aβ1-42 were extracted from mouse brains by guanidine hydrochloride and quantified as described by the manufacturer. […]

[4] = target: T1, S100b (S100) (Homo sapiens, UniProt P04271); assay: In vitro ligand binding ELISA, immobilized S100b; settings: various dilutions of fusion protein; FIG. 7
T1 sequence (P04271 1-92): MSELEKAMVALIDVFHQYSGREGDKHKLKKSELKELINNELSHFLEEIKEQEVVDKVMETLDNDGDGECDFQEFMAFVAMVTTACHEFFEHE
Procedure: (§1) For example, the RAGE fusion protein may be used in a binding assay to identify potential RAGE ligands. In one example embodiment of such a binding assay, a known RAGE ligand may coated onto a solid substrate (e.g., Maxisorb plates) at a concentration of about 5 micrograms per well, where each well contains a total volume of about 100 microliters (μL). The plates may be incubated at 4° C. overnight to allow the ligand to absorb. Alternatively, shorter incubation periods at higher temperature (e.g., room temperature) may be used. […] The fusion protein bound to the immobilized ligand may be detected in a variety of ways. […] The bound complex may be detected by adding the alkaline phosphatase substrate, para-nitrophenylphosphate (PNPP), and measuring conversion of PNPP to para-nitrophenol (PNP) as an increase in absorbance at 405 nm. […] Binding was detected by the addition of an immunodetection complex containing a monoclonal mouse anti-human IgG1 diluted 1:11,000 to a final assay concentration (FAC) of 21 ng/100 μL, a biotinylated goat anti-mouse IgG diluted 1:500, to a FAC of […], and an avidin-linked alkaline phosphatase. […] Binding of the complex to the immobilized fusion protein was quantified by measuring conversion of PNPP to para-nitrophenol (PNP) which was-measured spectrophotornetrically at 405 nm. […]

[5] = target: T2, amyloid-beta (Abeta) (Homo sapiens, UniProt P05067); assay: In vitro ligand binding ELISA, immobilized amyloid-beta; settings: various dilutions of fusion protein; FIG. 7
T2 construct: Amyloid Beta (1-40) from Biosource; purchased Biosource
T2 sequence (P05067 672-711 limits assumed): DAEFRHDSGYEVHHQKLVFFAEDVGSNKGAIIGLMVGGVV
Procedure: as §1

[6] = target: T3, amphoterin (Ampho) (Homo sapiens, UniProt P09429); assay: In vitro ligand binding ELISA, immobilized amphoterin; settings: various dilutions of fusion protein; FIG. 7
T3 sequence (P09429 1-215): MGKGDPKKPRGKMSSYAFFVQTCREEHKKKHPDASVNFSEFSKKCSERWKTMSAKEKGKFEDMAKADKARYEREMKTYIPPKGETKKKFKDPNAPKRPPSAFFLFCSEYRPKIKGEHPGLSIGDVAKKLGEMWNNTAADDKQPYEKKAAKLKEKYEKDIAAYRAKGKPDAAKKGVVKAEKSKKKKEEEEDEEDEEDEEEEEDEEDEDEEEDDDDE
Procedure: as §1

Molecule: human sRAGE: human soluble RAGE (e.g., SEQ ID NO: 4) [reference compound]
- half-life [1]: less than 2 hours
- half-life in plasma [2]: about 2 hours

Molecule: sRAGE: soluble RAGE: the RAGE protein that does not include the transmembrane region or the cytoplasmic tail [reference compound]
- half-life in plasma [2]: only a few hours

B1: rodent sRAGE: rodent soluble RAGE (protein, UniProt Q62151 23-340, looked up)
extracellular domain: GQNITARIGEPLVLSCKGAPKKPPQQLEWKLNTGRTEAWKVLSPQGGPWDSVARILPNGSLLLPATGIVDEGTFRCRATNRRGKEVKSNYRVRVYQIPGKPEIVDPASELTASVPNKVGTCVSEGSYPAGTLSWHLDGKLLIPDGKETLVKEETRRHPETGLFTLRSELTVIPTQGGTHPTFSCSFSLGLPRRRPLNTAPIQLRVREPGPPEGIQLLVEPEGGIVAPGGTVTLTCAISAQPPPQVHWIKDGAPLPLAPSPVLLLPEVGHEDEGTYSCVATHPSHGPQESPPVSIRVTETGDEGPAEGSVGESGLGTLA
modifications: extracellular domain
notes: rodent soluble RAGE
- half-life [1]: approximately 20 hours

B2: mouse sRAGE: mouse soluble RAGE used as comparator in the AD mouse model (protein, UniProt Q62151 23-340, looked up)
extracellular domain: B1 extracellular domain
modifications: extracellular domain
notes: mouse soluble RAGE used as comparator in the AD mouse model
- Aβ plaques in the brain ([3]; FIG. 14A): fewer Aβ plaques
- cognitive dysfunction (Morris water maze) ([3]; FIG. 14B): less cognitive dysfunction

B3: TTP-3000: three domain RAGE fusion protein (SEQ ID NO: 35): human RAGE amino acids 1-136 linked to CH2 and CH3 domains of human IgG (protein)
chain: MAAGTAVGAWVLVLSLWGAVVGAQNITARIGEPLVLKCKGAPKKPPQRLEWKLNTGRTEAWKVLSPQGGGPWDSVARVLPNGSLFLPAVGIQDEGIFRCQAMNRNGKETKSNYRVRVYQIPGKPEIVDSASELTAGPSVFLFPPKPKDTLMISRTPEVTCVVVDVSHEDPEVKFNWYVDGVEVHNAKTKPREEQYNSTYRVVSVLTVLHQDWLNGKEYKCKVSNKALPAPIEKTISKAKGQPREPQVYTLPPSRDELTKNQVSLTCLVKGFYPSDIAVEWESNGQPENNYKTTPPVLDSDGSFFLYSKLTVDKSRWQQGNVFSCSVMHEALHNHYTQKSLSLSPGK
- binding to immobilized S100b (absorbance at 405 nm) [4]: specifically interact
- binding to immobilized amyloid-beta (absorbance at 405 nm) [5]: specifically interact
- binding to immobilized amphoterin (absorbance at 405 nm) [6]: specifically interact
